Drawing on article PMC7430649, this text covers K half (uM nucleotides) for one sequence.

The series has as its system Bad (bacterial DNA2-like helicase-nuclease), wild type (Geobacillus stearothermophilus 10 (DSM 13240)). In words: ATPase stimulation titration. Conditions: saturating ATP; Buffers of the ATPase and tweezers assays not given in the material; tweezers at room temperature, low free Mg2+; helicase assays 20 mM Tris-HCl pH 7.5, 2 mM ….

With CAAGCGGGCGCCTCCCG [ODN1 (17mer ssDNA)], the K half (uM nucleotides) was 1.6.
